This assay deals with DnaJB8ΔCTD (human). Put plainly: cross-linking.

Chain of HspA1A (human Hsp70) (P0DMV8 whole entry): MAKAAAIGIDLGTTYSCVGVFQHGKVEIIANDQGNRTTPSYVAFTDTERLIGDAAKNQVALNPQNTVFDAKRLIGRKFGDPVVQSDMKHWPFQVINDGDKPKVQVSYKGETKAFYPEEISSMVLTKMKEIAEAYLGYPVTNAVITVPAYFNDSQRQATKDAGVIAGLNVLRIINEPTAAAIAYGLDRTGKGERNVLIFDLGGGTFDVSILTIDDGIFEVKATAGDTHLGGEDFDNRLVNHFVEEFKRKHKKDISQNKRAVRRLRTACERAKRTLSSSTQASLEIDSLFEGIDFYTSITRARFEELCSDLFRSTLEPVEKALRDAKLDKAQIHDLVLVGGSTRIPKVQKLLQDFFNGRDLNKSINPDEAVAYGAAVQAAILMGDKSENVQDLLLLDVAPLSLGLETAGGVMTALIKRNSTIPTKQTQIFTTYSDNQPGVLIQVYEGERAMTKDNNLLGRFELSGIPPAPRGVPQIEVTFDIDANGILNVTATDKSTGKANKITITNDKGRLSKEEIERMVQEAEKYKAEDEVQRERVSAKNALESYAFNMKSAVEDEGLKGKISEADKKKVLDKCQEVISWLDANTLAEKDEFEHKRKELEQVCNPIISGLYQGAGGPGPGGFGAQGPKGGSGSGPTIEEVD

The substance “HspA1A (human Hsp70) (from UniProt P0DMV8 1-641) (natural protein)” returned a total crosslinks between the JD and HspA1A across three XL-MS experiments of 14 crosslinks.

(Values after publication doi:10.1101/2020.01.09.899237.)
